Measurements as given in patent US7485456 (YEDA RESEARCH AND DEVELOPMENT, dated 2009).

B13: protein encoded by new clone number 10, partial NIK (NIK 624-947) (two-hybrid prey, GAL4 activation domain fusion) (enzyme, not shown: large carriers)
chain: PLTAQAIQEGLRKEPIHRVSAAELGGKVNRALQQVGGLKSPWRGEYKEPRHPPPNQANYHQTLHAQPRELSPRAPGPRPAEETTGRAPKLQPPLPPEPPEPNKSPPLTLSKEESGMWEPLPLSSLEPAPARNPSSPERKATVPEQELQQLEIELFLNSLSQPFSLEEQEQILSCLSIDSLSLSDDSEKNPSKASQSSRDTLSSGVHSWSSQAEARSSSWNMVLARGRPTDTPSYFNGVKVQIQSLNGEHLHIREFHRVKVGDIATGISSQIPAAAFSLVTKDGQPVRYDMEVPDSGIDLQCTLAPDGSFAWSWRVKHGQLENRP
notes: also called clone 10; NMPI

Legend:
[1] = molecular target: full-length NIK (NF-kB inducing kinase) (human, UniProt Q99558 1-947); assay: yeast two-hybrid (results not shown)
[2] = molecular target: B13; assay: yeast two-hybrid specificity test with irrelevant baits
[3] = molecular target: T1, human TRAF2 in pGBT9 vector in conjunction with GAL4 DNA binding domain (two-hybrid bait) (human, UniProt P04386 1-147 (Saccharomyces cerevisiae entry)); assay: yeast two-hybrid with TRAF2 bait, lacZ (beta-galactosidase) colour development time
T1 construct: Cloned by PCR from the first methionine to the stop codon; a short linker from the BamHI primer between GAL4 domain and TRAF2 is not spelled out; also called hTRAF2; full length TRAF2 molecule
Procedure: Positive clones picked up in the two hybrid screen were subjected to lacZ color development test in SFY526 yeast cells, following Clontech Laboratories' manual (for details see above mentioned publications and patent applications). In brief, transformants were allowed to grow at 30° C. for 2-4 days until reaching about 2 mm in diameter, then were transferred onto Whatman filters. The filters went through a freeze/thaw treatment in order to permeabilize the cells, then soaked in a buffer (16.1 mg/ml Na_2HPO_4.7H_2O; 5.5 mg/ml NaH_2PO_4.H_2O; 0.75 mg/ml KCl; 0.75 mg/ml MgSO_4.7H_2O, pH=7) containing 0.33 mg/ml X-gal and 0.35 mM β-mercaptoethanol. Colonies were monitored for development of blue color which is an indication for induction of β-galactosidase.
The screen yielded approximately 2000 clones which were able to grow on Trp-, Leu-, His-3AT plates. DNA prepared from 165 randomly selected positive clones served for transient co-transfection of SFY526 yeast strain together with TRAF2 cloned into pGBT9 vector. Assay for β-galactosidase activity was performed on the transformed SFY526 yeast colonies as described in Materials and Methods (v). The blue color that developed was an indication for yeast colonies that contain cDNA encoding a protein or polypeptide that binds to TRAF2.

[4] = molecular target: B13; assay: yeast two-hybrid, TRAF2 1-221 as bait
From the text: (§1) In order to narrow down the region on TRAF2 molecule which interact with clones 9, 10 and 15, two additional constructs were made. One construct comprised of the N-terminal part of the TRAF2 molecule, amino-acids 1 to 221, that included the Ring finger and the zinc finger motifs. The second construct included only the C-terminal part of the molecule, amino acids 222 to 501, covering the "TRAF-domain" and additional 42 amino acids. These two constructs were served as baits in two hybrid tests.

[5] = molecular target: B13; assay: yeast two-hybrid, TRAF2 222-501 as bait
From the text: as §1

B1: RIP (other, UniProt Q13546 1-671, looked up)
chain: MQPDMSLNVIKMKSSDFLESAELDSGGFGKVSLCFHRTQGLMIMKTVYKGPNCIEHNEALLEEAKMMNRLRHSRVVKLLGVIIEEGKYSLVMEYMEKGNLMHVLKAEMSTPLSVKGRIILEIIEGMCYLHGKGVIHKDLKPENILVDNDFHIKIADLGLASFKMWSKLNNEEHNELREVDGTAKKNGGTLYYMAPEHLNDVNAKPTEKSDVYSFAVVLWAIFANKEPYENAICEQQLIMCIKSGNRPDVDDITEYCPREIISLMKLCWEANPEARPTFPGIEEKFRPFYLSQLEESVEEDVKSLKKEYSNENAVVKRMQSLQLDCVAVPSSRSNSATEQPGSLHSSQGLGMGPVEESWFAPSLEHPQEENEPSLQSKLQDEANYHLYGSRMDRQTKQQPRQNVAYNREEERRRRVSHDPFAQQRPYENFQNTEGKGTAYSSAASHGNAVHQPSGLTSQPQVLYQNNGLYSSHGFGTRPLDPGTAGPRVWYRPIPSHMPSLHNIPVPETNYLGNTPTMPFSSLPPTDESIKYTIYNSTGIQIGAYNYMEIGGTSSSLLDSTNTNFKEEPAAKYQAIFDNTTSLTDKHLDPIRENLGKHWKNCARKLGFTQSQIDEIDHDYERDGLKEKVYQMLQKWVMREGIKGATVGKLAQALHQCSRIDLLSSLIYVSQN
notes: Two-hybrid construct
Does B1 bind [1]?
Result: no binding

B2: intracellular domain of the p75 TNF receptor (receptor, UniProt P20333 288-461, looked up)
chain: KKKPLCLQREAKVPHLPADKARGTQGPEQQHLLITAPSSSSSSLESSASALDRRAPTRNQPQAPGVEASGAGEARASTGSSDSSPGGHGTQVNVTCIVNVCSSSDHSSQCSSQASSTMGDTDSSPSESPKDEQVPFSKEECAFRSQLETPETLLGSTEEKPLPLGVPDAGMKPS
notes: domain: intracellular domain; Two-hybrid construct; also called p75-IC
What does the source list for B2?
binding result [1]: no binding; binding result [2]: no binding

B3: Lymphotoxin beta receptor cDNA clones picked from the human B-cell library (two-hybrid prey, GAL4 activation domain fusion) (receptor, UniProt P36941 249-435, looked up, not shown: large carriers)
chain: KSHPSLCRKLGSLLKRRPQGEGPNPVAGSWEPPKAHPYFPDLVQPLLPISGDVSPVSTGLPAAPVLEAGVPQQQSPLDLTREPQLEPGEQSQVAHGTNGIHVTGGSMTITGNIYIYNGPVLGGPPGPGDLPATPEPPYPIPEEGDPGPPGLSTPHQEDGKAWHLAETEHCGATPSNRGPRNQFITHD
For B3, which “Color test” value [3] is on record?
The value was 10 min.

B4: TRADD (other, UniProt Q15628 1-312, looked up)
chain: MAAGQNGHEEWVGSAYLFVESSLDKVVLSDAYAHPQQKVAVYRALQAALAESGGSPDVLQMLKIHRSDPQLIVQLRFCGRQPCGRFLRAYREGALRAALQRSLAAALAQHSVPLQLELRAGAERLDALLADEERCLSCILAQQPDRLRDEELAELEDALRNLKCGSGARGGDGEVASAPLQPPVPSLSEVKPPPPPPPAQTFLFQGQPVVNRPLSLKDQQTFARSVGLKWRKVGRSLQRGCRALRDPALDSLAYEYEREGLYEQAFQLLRRFVQAEGRRATLQRLVEALEENELTSLAEDLLGLTDPNGGLA
notes: Two-hybrid construct
Does B4 bind [1]?
Result: no binding

B5: construct of the N-terminal part of the TRAF2 molecule, amino-acids 1 to 221 (two-hybrid bait) (other)
chain: MAAASVTPPGSLELLQPGFSKTLLGTKLEAKYLCSACRNVLRRPFQAQCGHRYCSFCLASILSSGPQNCAACVHEGIYEEGISILESSSAFPDNAARREVESLPAVCPSDGCTWKGTLKEYESCHEGRCPLMLTECPACKGLVRLGEKERHLEHECPERSLSCRHCRAPCCGADVKAHHEVCPKFPLTCDGCGKKKIPREKFQDHVKTCGKCRVPCRFHAI
notes: Includes the Ring finger and zinc finger motifs; served as bait in two hybrid tests (fusion partner not spelled out for this construct); also called TRAF2 1-221
Does B5 bind [4]?
Result: no binding

B6: TRAF2 cDNA clones picked from the human B-cell library (two-hybrid prey, GAL4 activation domain fusion) (other, not shown: large carriers)
chain: MAAASVTPPGSLELLQPGFSKTLLGTKLEAKYLCSACRNVLRRPFQAQCGHRYCSFCLASILSSGPQNCAACVHEGIYEEGISILESSSAFPDNAARREVESLPAVCPSDGCTWKGTLKEYESCHEGRCPLMLTECPACKGLVRLGEKERHLEHECPERSLSCRHCRAPCCGADVKAHHEVCPKFPLTCDGCGKKKIPREKFQDHVKTCGKCRVPCRFHAIGCLETVEGEKQQEHEVQWLREHLAMLLSSVLEAKPLLGDQSHAGSELLQRCESLEKKTATFENIVCVLNREVERVAMTAEACSRQHRLDQDKIEALSSKVQQLERSIGLKDLAMADLEQKVLEMEASTYDGVFIWKISDFARKRQEAVAGRIPAIFSPAFYTSRYGYKMCLRIYLNGDGTGRGTHLSLFFVVMKGPNDALLRWPFNQKVTLMLLDQNNREHVIDAFRPDVTSSSFQRPVNDMNIASGCPLFCPVSKMEAKNSYVRDDAIFIKAIVDLTGL
B6 was tested. Which “Color test” value [3] did it give?
The value was 10 min.

B7: intracellular domain of the FAS/APO1 (CD95 receptor) (receptor, UniProt P25445 191-335, looked up)
chain: KRKEVQKTCRKHRKENQGSHESPTLNPETVAINLSDVDLSKYITTIAGVMTLSQVKGFVRKNGVNEAKIDEIKNDNVQDTAEQKVQLLRNWHQLHGKKEAYDTLIKDLKKANLCTLAEKIQTIILKDITSDSENSNFRNEIQSLV
notes: domain: intracellular domain; Two-hybrid construct
Does B7 bind [1]?
Result: no binding

B8: MORT1 (other, UniProt Q13158 1-208, looked up)
chain: MDPFLVLLHSVSSSLSSSELTELKFLCLGRVGKRKLERVQSGLDLFSMLLEQNDLEPGHTELLRELLASLRRHDLLRRVDDFEAGAAAGAAPGEEDLCAAFNVICDNVGKDWRRLARQLKVSDTKIDSIEDRYPRNLTERVRESLRIWKNTEKENATVAHLVGALRSCQMNLVADLVQEVQQARDLQNRSGAMSPMSWNSDASTSEAS
notes: Two-hybrid construct; also called FADD; MORT1/FADD
Does B8 bind [1]?
Result: no binding

Does B8 bind [2]?
Result: no binding

B9: intracellular domain of the CD40 receptor (receptor, UniProt P25942 216-277, looked up)
chain: KKVAKKPTNKAPHPKQEPQEINFPDDLPGSNTAAPVQETLHGCQPVTQEDGKESRISVQERQ
notes: as for B7
Does B9 bind [1]?
Result: no binding

B10: construct of the C-terminal part of the TRAF2 molecule, amino acids 222 to 501 (two-hybrid bait) (other)
chain: GCLETVEGEKQQEHEVQWLREHLAMLLSSVLEAKPLLGDQSHAGSELLQRCESLEKKTATFENIVCVLNREVERVAMTAEACSRQHRLDQDKIEALSSKVQQLERSIGLKDLAMADLEQKVLEMEASTYDGVFIWKISDFARKRQEAVAGRIPAIFSPAFYTSRYGYKMCLRIYLNGDGTGRGTHLSLFFVVMKGPNDALLRWPFNQKVTLMLLDQNNREHVIDAFRPDVTSSSFQRPVNDMNIASGCPLFCPVSKMEAKNSYVRDDAIFIKAIVDLTGL
notes: Covers the TRAF-domain and additional 42 amino acids; served as bait in two hybrid tests (fusion partner not spelled out for this construct); also called TRAF2 222-501; C-terminal construct comprising the TRAF domain
Does B10 bind [5]?
Result: binds

B11: intracellular domain of the p55 TNF receptor (receptor, UniProt P19438 235-455, looked up)
chain: RYQRWKSKLYSIVCGKSTPEKEGELEGTTTKPLAPNPSFSPTPGFTPTLGFSPVPSSTFTSSSTYTPGDCPNFAAPRREVAPPYQGADPILATALASDPIPNPLQKWEDSAHKPQSLDTDDPATLYAVVENVPPLRWKEFVRRLGLSDHEIDRLELQNGRCLREAQYSMLATWRRRTPRREATLELLGRVLRDMDLLGCLEDIEEALCGPAALPPAPSLLR
notes: domain: intracellular domain; Two-hybrid construct; also called p55-IC
Does B11 bind [1]?
Result: no binding

Does B11 bind [2]?
Result: no binding

B12: TRAF3 (other, UniProt Q13114 1-568, looked up)
chain: MESSKKMDSPGALQTNPPLKLHTDRSAGTPVFVPEQGGYKEKFVKTVEDKYKCEKCHLVLCSPKQTECGHRFCESCMAALLSSSSPKCTACQESIVKDKVFKDNCCKREILALQIYCRNESRGCAEQLMLGHLLVHLKNDCHFEELPCVRPDCKEKVLRKDLRDHVEKACKYREATCSHCKSQVPMIALQKHEDTDCPCVVVSCPHKCSVQTLLRSELSAHLSECVNAPSTCSFKRYGCVFQGTNQQIKAHEASSAVQHVNLLKEWSNSLEKKVSLLQNESVEKNKSIQSLHNQICSFEIEIERQKEMLRNNESKILHLQRVIDSQAEKLKELDKEIRPFRQNWEEADSMKSSVESLQNRVTELESVDKSAGQVARNTGLLESQLSRHDQMLSVHDIRLADMDLRFQVLETASYNGVLIWKIRDYKRRKQEAVMGKTLSLYSQPFYTGYFGYKMCARVYLNGDGMGKGTHLSLFFVIMRGEYDALLPWPFKQKVTLMLMDQGSSRRHLGDAFKPDPNSSSFKKPTGEMNIASGCPVFVAQTVLENGTYIKDDTIFIKVIVDTSDLPDP
notes: Two-hybrid construct
Does B12 bind [1]?
Result: no binding

With B13 as the binder, how does the “Color test” value [3] read?
The value was 15 min.
